Experimental data: the supplement of paper PMC10567573

B1: ATE1 (parent)
chain: YGSFHQQYWLDGKIIAVGVIDILP
B2: KCNA1 (parent)
chain: LKASMRELGLLIFFLFIGVILFSS

Variants of: B1
Experiment: protein stability index of a GFP-peptide fusion (GPS, HEK-293T) (PSI 1-6); higher = more stable
Details: c terminus: a fixed tail appended
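Further: lentivirally expressed fusions sorted by FACS into six bins by GFP to DsRed ratio, PSI derived from sequencing read proportions per bin multiplied by bin number.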

Variant	protein stability index
YGSFHQQYWLDGKIVAVGVIDILP	4.05
YGSFHQQYWLDGKINAVGVIDILP	2.59
YGSFHQQYWLDGKIGAVGVIDILP	3.26
YGSFHQQYWLDGKICAVGVIDILP	1.53
YGSFHQQYWLDGKIYAVGVIDILP	2.45
YGSFHQQYWLDGKIITVGVIDILP	2.7
YGSFHQQYWLDGKIIRVGVIDILP	3.32
YGSFHQQYWLDGKIIVVGVIDILP	3.31
YGSFHQQYWLDGKIIGVGVIDILP	2.13
YGSFHQQYWLDGKIIPVGVIDILP	2.38
YGSFHQQYWLDGKIIFVGVIDILP	2.21
YGSFHQQYWLDGKIISVGVIDILP	1.87
YGSFHQQYWLDGKIIQVGVIDILP	3.07
YGSFHQQYWLDGKIICVGVIDILP	1.6
YGSFHQQYWLDGKIIMVGVIDILP	2
YGSFHQQYWLDGKIIYVGVIDILP	2.13
YGSFHQQYWLDGKIIARGVIDILP	3.21
YGSFHQQYWLDGKIIACGVIDILP	3.27
YGSFHQQYWLDGKIIAYGVIDILP	2.91

Variant	protein stability index
YGSFHQQYWLDGKIIAWGVIDILP	3
YGSFHQQYWLDGKIIAMGVIDILP	3.42
YGSFHQQYWLDGKIIAPGVIDILP	1.66
YGSFHQQYWLDGKIIALGVIDILP	2.42
YGSFHQQYWLDGKIIAIGVIDILP	1.95
YGSFHQQYWLDGKIIAAGVIDILP	3.66
YGSFHQQYWLDGKIIANGVIDILP	2.82
YGSFHQQYWLDGKIIADGVIDILP	2.26
YGSFHQQYWLDGKIIAFGVIDILP	4.21
YGSFHQQYWLDGKIIAHGVIDILP	3.08
YGSFHQQYWLDGKIIATGVIDILP	3.29
YGSFHQQYWLDGKIIAVGVITILP	3
YGSFHQQYWLDGKIIAVGVIFILP	4.18
YGSFHQQYWLDGKIIAVGVIWILP	4.17
YGSFHQQYWLDGKIIAVGVIEILP	3.01
YGSFHQQYWLDGKIIAVGVIYILP	1.97
YGSFHQQYWLDGKIIAVGVIVILP	4.01
YGSFHQQYWLDGKIIAVGVIQILP	3.26
YGSFHQQYWLDGKIIAVGVISILP	3.23

Variant	protein stability index
YGSFHQQYWLDGKIIAVGVIIILP	2.97
YGSFHQQYWLDGKIIAVGVIPILP	2.97
YGSFHQQYWLDGKIIAVGVINILP	2.85
YGSFHQQYWLDGKIIAVGVIMILP	1.81
YGSFHQQYWLDGKIIAVGVIRILP	3.36
YGSFHQQYWLDGKIIAVGVICILP	3.23
YGSFHQQYWLDGKIIAVGVIDITP	2.53
YGSFHQQYWLDGKIIAVGVIDIAP	4.34
YGSFHQQYWLDGKIIAVGVIDIDP	2.88
YGSFHQQYWLDGKIIAVGVIDIHP	2
YGSFHQQYWLDGKIIAVGVIDIKP	2.49
YGSFHQQYWLDGKIIAVGVIDIGP	2.94
YGSFHQQYWLDGKIIAVGVIDIIP	2.34
YGSFHQQYWLDGKIIAVGVIDIMP	1.78
YGSFHQQYWLDGKIIAVGVIDIEP	1.4
YGSFHQQYWLDGKIIAVGVIDISP	2.66
YGSFHQQYWLDGKIIAVGVIDIPP	2.72
YGSFHQQYWLDGKIIAVGVIDIQP	3.64

Variants of: B2
Experiment: as above
Details: c terminus: a fixed tail appended

Variant	protein stability index
LYASMRELGLLIFFLFIGVILFSS	2.35
LCASMRELGLLIFFLFIGVILFSS	1.28
LLASMRELGLLIFFLFIGVILFSS	1.81
LVASMRELGLLIFFLFIGVILFSS	3.35
LMASMRELGLLIFFLFIGVILFSS	2.15
LIASMRELGLLIFFLFIGVILFSS	2.79
LSASMRELGLLIFFLFIGVILFSS	2.19
LHASMRELGLLIFFLFIGVILFSS	2.54
LAASMRELGLLIFFLFIGVILFSS	3.41
LNASMRELGLLIFFLFIGVILFSS	2.18
LRASMRELGLLIFFLFIGVILFSS	2.32
LDASMRELGLLIFFLFIGVILFSS	2.89
LFASMRELGLLIFFLFIGVILFSS	2
LQASMRELGLLIFFLFIGVILFSS	3.04
LGASMRELGLLIFFLFIGVILFSS	2.49
LEASMRELGLLIFFLFIGVILFSS	3.11
LTASMRELGLLIFFLFIGVILFSS	2.01
LWASMRELGLLIFFLFIGVILFSS	2.4
LPASMRELGLLIFFLFIGVILFSS	2.02

Variant	protein stability index
HKASMRELGLLIFFLFIGVILFSS	3.89
IKASMRELGLLIFFLFIGVILFSS	2.29
WKASMRELGLLIFFLFIGVILFSS	1.56
EKASMRELGLLIFFLFIGVILFSS	1.93
NKASMRELGLLIFFLFIGVILFSS	2.84
AKASMRELGLLIFFLFIGVILFSS	2.05
KKASMRELGLLIFFLFIGVILFSS	1.58
QKASMRELGLLIFFLFIGVILFSS	2.04
YKASMRELGLLIFFLFIGVILFSS	2.76
MKASMRELGLLIFFLFIGVILFSS	2.27
DKASMRELGLLIFFLFIGVILFSS	3.09
GKASMRELGLLIFFLFIGVILFSS	3
FKASMRELGLLIFFLFIGVILFSS	2.12
TKASMRELGLLIFFLFIGVILFSS	1.84
RKASMRELGLLIFFLFIGVILFSS	1.4
CKASMRELGLLIFFLFIGVILFSS	2.3
PKASMRELGLLIFFLFIGVILFSS	1.82
SKASMRELGLLIFFLFIGVILFSS	1.05
VKASMRELGLLIFFLFIGVILFSS	1.88
